Targets include HLA-A*02:02; HLA-A*02:03; HLA-A*02:06; HLA-A*02:01; HLA-A*68:02.
Common to all, as to assay: IEDB peptide-MHC binding, cellular MHC/competitive/fluorescence; ≥ and ≤ were set here for values at or beyond the usual limits of such assays
Where [1] appears, read: source organism: Vaccinia virus WR.
The mark [2] stands for this setting: source organism: Influenza A virus.
[3] abbreviates: source organism: Mammarenavirus choriomeningitidis.
Where [4] appears, read: source organism: Mammarenavirus whitewaterense.

By IC50 is commonly meant the concentration that inhibits the measured activity by half.

For the sequence RTWKVLSIMA, the IC50 with HLA-A*02:02 (setting [1]) turned out to be 24 µM; with HLA-A*02:03 (setting [1]) it was 6.05 µM; with HLA-A*02:06 (setting [1]), 5.75 µM; with HLA-A*02:01 (setting [1]), 8.48 µM; with HLA-A*68:02 (setting [1]), 8.2 µM.

Take RVTKRDESSI: the IC50 was determined as 12.3 µM with HLA-A*02:02 (setting [1]); 10.7 µM with HLA-A*02:03 (setting [1]); 22.2 µM in the test with HLA-A*02:06 (setting [1]); 55.9 µM with HLA-A*02:01 (setting [1]); 8.81 µM in the test with HLA-A*68:02 (setting [1]).

For the sequence SAAFEDLRL, the IC50 was 15.4 µM in the test with HLA-A*02:02 (setting [2]); 9.24 µM in the test with HLA-A*02:03 (setting [2]); 30.6 µM in the test with HLA-A*02:06 (setting [2]); no less than 70 µM in the test with HLA-A*02:01 (setting [2]); 27.1 µM in the test with HLA-A*68:02 (setting [2]).

As for SAAFEDLRLL, the IC50 with HLA-A*02:02 (setting [2]) is 21.4 µM; with HLA-A*02:03 (setting [2]), 13.6 µM; in the test with HLA-A*02:06 (setting [2]), 23.5 µM; with HLA-A*02:01 (setting [2]), 42.7 µM; in the test with HLA-A*68:02 (setting [2]), no less than 70 µM.

Regarding SADNHPKMI, the IC50 was 8.18 µM with HLA-A*02:02 (setting [1]); 43.5 µM with HLA-A*02:03 (setting [1]); no less than 70 µM with HLA-A*02:06 (setting [1]); 14.5 µM with HLA-A*02:01 (setting [1]); no less than 70 µM with HLA-A*68:02 (setting [1]).

Turning to SAEDNYLAKL, the IC50 in the test with HLA-A*02:02 (setting [1]), in the test with HLA-A*02:03 (setting [1]), in the test with HLA-A*02:06 (setting [1]), with HLA-A*02:01 (setting [1]) and in the test with HLA-A*68:02 (setting [1]) was no less than 70 µM throughout.

Take SIENKHQRRL: the IC50 with HLA-A*02:02 (setting [1]) was 17 µM; with HLA-A*02:03 (setting [1]) it was 21.1 µM; with HLA-A*02:06 (setting [1]) it was 53.6 µM; with HLA-A*02:01 (setting [1]), no less than 70 µM; in the test with HLA-A*68:02 (setting [1]) it was no less than 70 µM.

Consider SITPNNLNKI, for which the IC50 is 14.9 µM with HLA-A*02:02 (setting [1]); no less than 70 µM with HLA-A*02:03 (setting [1]); no less than 70 µM with HLA-A*02:06 (setting [1]); no less than 70 µM with HLA-A*02:01 (setting [1]); no less than 70 µM with HLA-A*68:02 (setting [1]).

In the case of SNSEDLLKAV, the IC50 with HLA-A*02:02 (setting [3]) stood at 17.8 µM; with HLA-A*02:03 (setting [3]) it was 15.2 µM; in the test with HLA-A*02:06 (setting [3]), 10 µM; in the test with HLA-A*02:01 (setting [3]), 7.84 µM; with HLA-A*68:02 (setting [3]), 43 µM.

Take STQQNKLVI: the IC50 was 53 µM in the test with HLA-A*02:02 (setting [1]); 14.4 µM in the test with HLA-A*02:03 (setting [1]); no less than 70 µM with HLA-A*02:06 (setting [1]); 41.1 µM in the test with HLA-A*02:01 (setting [1]); 25.7 µM with HLA-A*68:02 (setting [1]).

In the case of SVDEEGCGPL, the IC50 with HLA-A*02:02 (setting [1]) is 14.8 µM; with HLA-A*02:03 (setting [1]), 38.7 µM; in the test with HLA-A*02:06 (setting [1]), 12.7 µM; in the test with HLA-A*02:01 (setting [1]), 32.1 µM; with HLA-A*68:02 (setting [1]) it was 35.3 µM.

With TATKRIRMA, the IC50 with HLA-A*02:02 (setting [2]) is 48.4 µM; with HLA-A*02:03 (setting [2]), 24.1 µM; with HLA-A*02:06 (setting [2]), 35.4 µM; with HLA-A*02:01 (setting [2]), 34 µM; with HLA-A*68:02 (setting [2]), no less than 70 µM.

In the case of TIDNIVTSLA, the IC50 with HLA-A*02:02 (setting [1]), with HLA-A*02:03 (setting [1]), with HLA-A*02:06 (setting [1]), with HLA-A*02:01 (setting [1]) and with HLA-A*68:02 (setting [1]) was no less than 70 µM in each case.

With TIEDDKIVTM, the IC50 with HLA-A*02:02 (setting [1]) stood at 17 µM; in the test with HLA-A*02:03 (setting [1]), 17.2 µM; in the test with HLA-A*02:06 (setting [1]), 26.1 µM; with HLA-A*02:01 (setting [1]) it was 13.3 µM; with HLA-A*68:02 (setting [1]), 38.8 µM.

As for TIESAKTKI, the IC50 turned out to be 16.3 µM in the test with HLA-A*02:02 (setting [1]); 54.1 µM with HLA-A*02:03 (setting [1]); 51.4 µM with HLA-A*02:06 (setting [1]); 15.2 µM with HLA-A*02:01 (setting [1]); 52.6 µM with HLA-A*68:02 (setting [1]).

As to TQFNFNGHT, the IC50 was 43.4 µM in the test with HLA-A*02:02 (setting [1]); 14.4 µM in the test with HLA-A*02:03 (setting [1]); 10 µM with HLA-A*02:06 (setting [1]); no less than 70 µM with HLA-A*02:01 (setting [1]); 52.2 µM with HLA-A*68:02 (setting [1]).

On to TQLFKYVPSA, for which the IC50 with HLA-A*02:02 (setting [1]), with HLA-A*02:03 (setting [1]), with HLA-A*02:06 (setting [1]), in the test with HLA-A*02:01 (setting [1]) and with HLA-A*68:02 (setting [1]) was no less than 70 µM in each case.

TTELNIVDEI: the 50% inhibitory concentration (IC50) with HLA-A*02:02 (setting [1]) was 38.7 µM; with HLA-A*02:03 (setting [1]), no less than 70 µM; with HLA-A*02:06 (setting [1]) it was 21.4 µM; with HLA-A*02:01 (setting [1]), 35.9 µM; in the test with HLA-A*68:02 (setting [1]), 10.7 µM.

Regarding TTENAAYQVL, the IC50 is 29.7 µM with HLA-A*02:02 (setting [1]); no less than 70 µM with HLA-A*02:03 (setting [1]); no less than 70 µM with HLA-A*02:06 (setting [1]); 8.11 µM with HLA-A*02:01 (setting [1]); 18.2 µM with HLA-A*68:02 (setting [1]).

For the sequence TVDHMAII, the IC50 in the test with HLA-A*02:02 (setting [2]) was no less than 70 µM; with HLA-A*02:03 (setting [2]) it was 13 µM; with HLA-A*02:06 (setting [2]), 41.8 µM; with HLA-A*02:01 (setting [2]), no less than 70 µM; with HLA-A*68:02 (setting [2]), 39.7 µM.

For TVDVRNIVT, the IC50 with HLA-A*02:02 (setting [1]) stood at 13.4 µM; with HLA-A*02:03 (setting [1]), 13.1 µM; with HLA-A*02:06 (setting [1]) it was 53.6 µM; with HLA-A*02:01 (setting [1]), 10.5 µM; with HLA-A*68:02 (setting [1]), 5.98 µM.

For TVIKNNMI, the IC50 in the test with HLA-A*02:02 (setting [2]) was 36 µM; with HLA-A*02:03 (setting [2]), no less than 70 µM; with HLA-A*02:06 (setting [2]), 67 µM; with HLA-A*02:01 (setting [2]) it was no less than 70 µM; with HLA-A*68:02 (setting [2]) it was no less than 70 µM.

As to TVLGVSIL, the IC50 came out at 23.9 µM in the test with HLA-A*02:02 (setting [2]); 14.2 µM with HLA-A*02:03 (setting [2]); 5.69 µM with HLA-A*02:06 (setting [2]); 6.79 µM with HLA-A*02:01 (setting [2]); 15.8 µM in the test with HLA-A*68:02 (setting [2]).

For the sequence TVPSERGL, the IC50 is no less than 70 µM with HLA-A*02:02 (setting [2]); no less than 70 µM with HLA-A*02:03 (setting [2]); no less than 70 µM in the test with HLA-A*02:06 (setting [2]); 52.9 µM with HLA-A*02:01 (setting [2]); 65 µM with HLA-A*68:02 (setting [2]).

Take VAKCCSKTNT: the IC50 with HLA-A*02:02 (setting [1]) is 14.7 µM; in the test with HLA-A*02:03 (setting [1]) it was 21.7 µM; with HLA-A*02:06 (setting [1]), 40.7 µM; in the test with HLA-A*02:01 (setting [1]) it was 20.9 µM; with HLA-A*68:02 (setting [1]), no less than 70 µM.

As to VASDVCKKNL, the IC50 with HLA-A*02:02 (setting [1]) is 50.9 µM; with HLA-A*02:03 (setting [1]), no less than 70 µM; with HLA-A*02:06 (setting [1]) it was no less than 70 µM; in the test with HLA-A*02:01 (setting [1]) it was no less than 70 µM; in the test with HLA-A*68:02 (setting [1]) it was 39.5 µM.

VATTHSWI: the IC50 with HLA-A*02:02 (setting [2]) was no less than 70 µM; in the test with HLA-A*02:03 (setting [2]), 62.3 µM; in the test with HLA-A*02:06 (setting [2]) it was no less than 70 µM; in the test with HLA-A*02:01 (setting [2]), no less than 70 µM; in the test with HLA-A*68:02 (setting [2]), 56.2 µM.

Consider VIPFDDIVRT, for which the IC50 came to 62.8 µM in the test with HLA-A*02:02 (setting [1]); 50.3 µM with HLA-A*02:03 (setting [1]); 18.2 µM with HLA-A*02:06 (setting [1]); 24.4 µM in the test with HLA-A*02:01 (setting [1]); 42.2 µM with HLA-A*68:02 (setting [1]).

In the case of VIRHVDGKIL, the IC50 in the test with HLA-A*02:02 (setting [1]) was no less than 70 µM; with HLA-A*02:03 (setting [1]), 33.4 µM; with HLA-A*02:06 (setting [1]), no less than 70 µM; in the test with HLA-A*02:01 (setting [1]), no less than 70 µM; with HLA-A*68:02 (setting [1]), no less than 70 µM.

For VIVENDNVI, the IC50 with HLA-A*02:02 (setting [1]) is 15.5 µM; with HLA-A*02:03 (setting [1]), 19.5 µM; with HLA-A*02:06 (setting [1]), 7.24 µM; with HLA-A*02:01 (setting [1]), 25.6 µM; with HLA-A*68:02 (setting [1]), 8.02 µM.

In the case of VLKAMHDKKI, the IC50 with HLA-A*02:02 (setting [1]) was 48.9 µM; with HLA-A*02:03 (setting [1]), 33.9 µM; with HLA-A*02:06 (setting [1]), no less than 70 µM; in the test with HLA-A*02:01 (setting [1]), no less than 70 µM; with HLA-A*68:02 (setting [1]), no less than 70 µM.

Take VMDKNHAIFT: the IC50 with HLA-A*02:02 (setting [1]) is 18.7 µM; in the test with HLA-A*02:03 (setting [1]), 11.5 µM; in the test with HLA-A*02:06 (setting [1]) it was no less than 70 µM; in the test with HLA-A*02:01 (setting [1]), 8.7 µM; with HLA-A*68:02 (setting [1]), 13 µM.

As to VTGSYNLVDT, the half-maximal inhibitory concentration (IC50) with HLA-A*02:02 (setting [1]), with HLA-A*02:03 (setting [1]), with HLA-A*02:06 (setting [1]), with HLA-A*02:01 (setting [1]) and in the test with HLA-A*68:02 (setting [1]) was no less than 70 µM throughout.

VTKSSSWKDV: the IC50 with HLA-A*02:02 (setting [1]) is no less than 70 µM; in the test with HLA-A*02:03 (setting [1]) it was 41.9 µM; with HLA-A*02:06 (setting [1]) it was no less than 70 µM; in the test with HLA-A*02:01 (setting [1]), no less than 70 µM; with HLA-A*68:02 (setting [1]) it was 40.4 µM.

Consider VVKDKIKLPT, for which the IC50 with HLA-A*02:02 (setting [1]) was determined as 37.3 µM; with HLA-A*02:03 (setting [1]), 8.6 µM; with HLA-A*02:06 (setting [1]) it was 29.1 µM; with HLA-A*02:01 (setting [1]), 40.2 µM; with HLA-A*68:02 (setting [1]) it was 42.7 µM.

Take YCHGILLKDV: the IC50 is no less than 70 µM with HLA-A*02:02 (setting [4]); 13 µM with HLA-A*02:03 (setting [4]); 15 µM with HLA-A*02:06 (setting [4]); 11.4 µM with HLA-A*02:01 (setting [4]); 57.6 µM with HLA-A*68:02 (setting [4]).

The values above are taken from the Immune Epitope Database (IEDB).
